No end group written: not given here.

The values that follow come from paper PMC3876041, “Screening of Peptide Ligands for Pyrroloquinoline Quinone Glucose Dehydrogenase Using Antagonistic Template-Based Biopanning” (International Journal of Molecular Sciences, 2013).

Series [1] deals with T1, DEE-His (His-tagged V453D-Q454E-K455E GDH-B) (Acinetobacter calcoaceticus, UniProt P13650, K455E/Q454E/V453D).
T1 construct: 6-His (C); made in house
T1 sequence (P13650 25-478 V453D/Q454E/K455E): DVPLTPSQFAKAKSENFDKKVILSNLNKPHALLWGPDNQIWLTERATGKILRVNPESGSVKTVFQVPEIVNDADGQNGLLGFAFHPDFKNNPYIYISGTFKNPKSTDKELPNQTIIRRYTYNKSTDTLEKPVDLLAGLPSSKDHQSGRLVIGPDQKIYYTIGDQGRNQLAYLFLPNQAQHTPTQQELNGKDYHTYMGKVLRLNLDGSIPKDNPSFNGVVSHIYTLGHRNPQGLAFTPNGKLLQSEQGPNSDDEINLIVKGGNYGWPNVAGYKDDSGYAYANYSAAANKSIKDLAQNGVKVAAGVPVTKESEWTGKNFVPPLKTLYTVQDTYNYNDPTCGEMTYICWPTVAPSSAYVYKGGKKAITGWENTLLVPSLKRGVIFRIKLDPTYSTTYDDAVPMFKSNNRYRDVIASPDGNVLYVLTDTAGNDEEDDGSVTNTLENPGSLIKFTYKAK
In words: SPR (BIAcore X) binding of immobilized synthesized peptides, DEE-His as analyte. The note with it: peptide on CM5 chip (amine coupling), analyte 5 nM to 90 μM in 10 mM MOPS–NaOH pH 7.0, less than 20 RU at any analyte concentration = not binding, read-out: Kd against DEE-His. The text has this: (§1) The purity was greater than 95%.

In series [2] the target is T2, HI (Y367H-N452I GDH-B) (Acinetobacter calcoaceticus, UniProt P13650, N452I/Y367H).
T2 construct: made in house; host or cells: Escherichia coli PP2418 / pTrc99A
T2 sequence (P13650 25-478 Y367H/N452I): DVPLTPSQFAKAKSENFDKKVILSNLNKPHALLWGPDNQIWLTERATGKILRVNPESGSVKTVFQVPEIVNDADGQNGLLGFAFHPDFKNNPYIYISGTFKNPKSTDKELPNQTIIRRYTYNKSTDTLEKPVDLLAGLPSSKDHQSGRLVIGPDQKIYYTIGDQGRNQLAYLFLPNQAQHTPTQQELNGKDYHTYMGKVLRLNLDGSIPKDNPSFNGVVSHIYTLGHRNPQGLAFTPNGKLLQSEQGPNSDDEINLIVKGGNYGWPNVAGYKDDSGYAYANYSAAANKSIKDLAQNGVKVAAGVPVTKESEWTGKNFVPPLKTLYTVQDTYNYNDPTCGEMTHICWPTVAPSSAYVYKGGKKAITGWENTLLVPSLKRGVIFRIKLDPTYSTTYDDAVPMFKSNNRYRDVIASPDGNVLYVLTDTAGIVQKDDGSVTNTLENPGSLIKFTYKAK
The series can be described thus: SPR (BIAcore X) binding of immobilized synthesized peptides, HI as analyte. To be noted: peptide on CM5 chip (amine coupling), analyte 5 nM to 90 μM in 10 mM MOPS–NaOH pH 7.0, less than 20 RU at any analyte concentration = not binding, read-out: Kd against HI.
Source text: as §1

Series [3] has as its target T3, wild-type water-soluble pyrroloquinoline quinone (PQQ) glucose dehydrogenase (GDH-B) (UniProt P13650 25-478).
T3 construct: water-soluble PQQ-dependent glucose dehydrogenase (GDH-B); structural gene in pTrc99A; Produced as apo-form in E. coli; PQQ and Ca2+ are added for activity assays; also called wild-type GDH-B; W.T; source: E. coli PP2418 (pTrc99A), purified as previously described (cation exchange chromatography)
T3 sequence (looked up): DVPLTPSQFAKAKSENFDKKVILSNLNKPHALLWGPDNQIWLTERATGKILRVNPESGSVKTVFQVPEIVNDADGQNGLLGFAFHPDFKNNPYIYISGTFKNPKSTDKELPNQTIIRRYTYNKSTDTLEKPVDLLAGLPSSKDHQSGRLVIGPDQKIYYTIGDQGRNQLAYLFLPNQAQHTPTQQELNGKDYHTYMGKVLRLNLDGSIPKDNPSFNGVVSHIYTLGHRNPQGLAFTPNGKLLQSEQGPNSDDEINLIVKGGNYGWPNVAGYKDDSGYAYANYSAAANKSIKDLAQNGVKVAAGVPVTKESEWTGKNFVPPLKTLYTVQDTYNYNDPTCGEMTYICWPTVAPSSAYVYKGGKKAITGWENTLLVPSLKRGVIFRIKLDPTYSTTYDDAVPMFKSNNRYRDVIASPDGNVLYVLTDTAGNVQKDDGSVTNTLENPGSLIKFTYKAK
In words: SPR; BIAcore X; peptide immobilised on CM5 chip by amine coupling (320-2130 RU); analytes GDH-B, DEE-His or HI, five concentrations (5 nM to 90 uM) in 10 mM MOPS-NaOH pH 7.0, 10 uL/min to plateau; Kd from plateau RU against concentration (Scatchard); less than 20 RU at any concentration judged as not binding. The note with it: both partners purified.

In series [4] the target is T4, Y367H-N452I GDH-B (HI) (UniProt P13650 25-478, Y367H | N452I).
T4 construct: also called antagonistic template; source: E. coli PP2418 (pTrc99A), soluble, purified (Resource S cation exchange, Superdex 200 size exclusion chromatography)
T4 sequence: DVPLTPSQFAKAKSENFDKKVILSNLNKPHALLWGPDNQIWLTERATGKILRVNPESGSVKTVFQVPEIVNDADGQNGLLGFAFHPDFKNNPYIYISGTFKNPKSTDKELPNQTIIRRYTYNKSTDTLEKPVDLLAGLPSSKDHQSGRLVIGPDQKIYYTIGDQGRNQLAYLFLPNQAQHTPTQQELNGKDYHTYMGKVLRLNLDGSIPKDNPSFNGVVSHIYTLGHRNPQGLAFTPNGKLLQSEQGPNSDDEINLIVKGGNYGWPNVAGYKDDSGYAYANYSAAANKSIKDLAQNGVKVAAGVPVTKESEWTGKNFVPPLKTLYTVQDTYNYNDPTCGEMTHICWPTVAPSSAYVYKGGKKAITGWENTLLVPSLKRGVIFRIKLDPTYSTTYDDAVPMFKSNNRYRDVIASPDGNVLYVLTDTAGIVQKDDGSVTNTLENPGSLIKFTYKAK
The series can be described thus: SPR. To be noted: both partners purified.

For series [5], the target named is T3, wild-type water-soluble …. The series can be described thus: enzyme inhibition assay; residual activity of 0.7 nM GDH-B for 50 mM D-glucose after 1 h incubation with various concentrations of peptide; DCIP/PMS, 10 mM MOPS-NaOH pH 7.0, PQQ, CaCl2; non-competitive dominant mixed inhibition. The note with it: both partners purified.
For series [6] the following is noted: decrease vs wild-type GDH-B, ref [36]; cited from earlier work. The text has this: We, and other research groups, have been engaged in constructing of variety of mutant GDH-Bs in order to develop an ideal enzyme for glucose monitoring. For example, we have reported the Asn452Thr GDH-B mutant, showing approximately 50% lower activity for lactose and maltose than the wild-type GDH-B [36].

Series [7] can be described thus: Kinetic parameters of GDH-B and mutant enzymes. The format is biochemical. On the procedure: GDH-B activity was measured using 0.06 mM 2,6-dichlorophenolindophenol (DCIP) and 0.6 mM phenazine methosulfate (PMS) following 30 min pre-incubation in 10 mM MOPS–NaOH buffer (pH 7.0) containing 1 μM PQQ and 1 mM CaCl2 at room temperature (25 °C). The enzyme activity was determined by measuring the decrease in absorbance of DCIP at 600 nm. For the inhibition assay, the residual activity of 0.7 nM GDH-B for 50 mM D-glucose was measured following 1 h incubation with various concentrations of each peptide. GDH-B activity in the absence of peptide was defined as 100%.

Setting [8] is: DCIP/PMS assay, 10 mM MOPS–NaOH pH 7.0, 1 μM PQQ, 1 mM CaCl2, 25 °C.

For ELITNSETTQWF [HI3-2], in series [1], the Kd is > 90 µM. As for LGDSSNSQVSLN [DEE4–5], the Kd in series [1] and in series [2] was > 90 µM throughout.

NSTHHHHFATIW [DEE4–10]: the Kd in series [1] and in series [2] was > 90 µM in each case. With SDLSPIQSLSAI [DEE4–6], the Kd in series [1] is > 90 µM.

B1: DEE4–5 synthesized 12-mer peptide (peptide)
peptide: LGDSSNSQVSLN
notes: 12-mer selected from the Ph.D.-12 phage display peptide library; Immobilised on a CM5 chip by amine coupling in the SPR; also called DEE3-4; source: synthetic peptide, bought: Sigma Aldrich Japan
Take B1: the affinity in series [3], expressed as Kd, was 13 µM.

B2: HI3-2 synthesized 12-mer peptide (peptide)
peptide: ELITNSETTQWF
notes: 12-mer selected from the Ph.D.-12 phage display peptide library; Immobilised on a CM5 chip by amine coupling in the SPR; source: synthetic peptide, bought: Sigma Aldrich Japan
B2: the results for the Kd in series [3] and in series [4] were 2.5 µM and 88 µM, respectively.

B3: DEE4–6 synthesized 12-mer peptide (peptide)
peptide: SDLSPIQSLSAI
notes: 12-mer selected from the Ph.D.-12 phage display peptide library; Immobilised on a CM5 chip by amine coupling in the SPR; also called DEE4–9; source: synthetic peptide, bought: Sigma Aldrich Japan
As for B3, the Kd in series [3] came to 2.5 µM; in series [4] it was 230 µM.

B4: DEE4–10 synthesized 12-mer peptide (peptide)
peptide: NSTHHHHFATIW
notes: 12-mer selected from the Ph.D.-12 phage display peptide library; Immobilised on a CM5 chip by amine coupling in the SPR; also called HI4–6; source: synthetic peptide, bought: Sigma Aldrich Japan
As for B4, the Kd in series [3] amounted to 0.7 µM. This molecule had a Ki in series [5] of 7.4 µM.

B5: Asn452Thr GDH-B mutant: previously reported Asn452Thr GDH-B mutant, ref [36] (protein, UniProt P13650 25-478, looked up, variant N452T)
Quinoprotein glucose …: DVPLTPSQFAKAKSENFDKKVILSNLNKPHALLWGPDNQIWLTERATGKILRVNPESGSVKTVFQVPEIVNDADGQNGLLGFAFHPDFKNNPYIYISGTFKNPKSTDKELPNQTIIRRYTYNKSTDTLEKPVDLLAGLPSSKDHQSGRLVIGPDQKIYYTIGDQGRNQLAYLFLPNQAQHTPTQQELNGKDYHTYMGKVLRLNLDGSIPKDNPSFNGVVSHIYTLGHRNPQGLAFTPNGKLLQSEQGPNSDDEINLIVKGGNYGWPNVAGYKDDSGYAYANYSAAANKSIKDLAQNGVKVAAGVPVTKESEWTGKNFVPPLKTLYTVQDTYNYNDPTCGEMTYICWPTVAPSSAYVYKGGKKAITGWENTLLVPSLKRGVIFRIKLDPTYSTTYDDAVPMFKSNNRYRDVIASPDGNVLYVLTDTAGTVQKDDGSVTNTLENPGSLIKFTYKAK
For the molecule B5, in series [6], the “lower activity for lactose than the wild-type” value was “approximately 50%” and the “lower activity for maltose than the wild-type” value is given as “approximately 50%”.

B6: GDH-B: water-soluble pyrroloquinoline quinone (PQQ) dependent glucose dehydrogenase, wild type (protein)
chain: DVPLTPSQFAKAKSENFDKKVILSNLNKPHALLWGPDNQIWLTERATGKILRVNPESGSVKTVFQVPEIVNDADGQNGLLGFAFHPDFKNNPYIYISGTFKNPKSTDKELPNQTIIRRYTYNKSTDTLEKPVDLLAGLPSSKDHQSGRLVIGPDQKIYYTIGDQGRNQLAYLFLPNQAQHTPTQQELNGKDYHTYMGKVLRLNLDGSIPKDNPSFNGVVSHIYTLGHRNPQGLAFTPNGKLLQSEQGPNSDDEINLIVKGGNYGWPNVAGYKDDSGYAYANYSAAANKSIKDLAQNGVKVAAGVPVTKESEWTGKNFVPPLKTLYTVQDTYNYNDPTCGEMTYICWPTVAPSSAYVYKGGKKAITGWENTLLVPSLKRGVIFRIKLDPTYSTTYDDAVPMFKSNNRYRDVIASPDGNVLYVLTDTAGNVQKDDGSVTNTLENPGSLIKFTYKAK
Regarding B6, in series [7] (setting [8]), the Km came out at 25 mM and the Vmax is 5200 U/mg protein.

B7: HI: GDH-B mutant Y367H-N452I, antagonistic template (protein)
chain: DVPLTPSQFAKAKSENFDKKVILSNLNKPHALLWGPDNQIWLTERATGKILRVNPESGSVKTVFQVPEIVNDADGQNGLLGFAFHPDFKNNPYIYISGTFKNPKSTDKELPNQTIIRRYTYNKSTDTLEKPVDLLAGLPSSKDHQSGRLVIGPDQKIYYTIGDQGRNQLAYLFLPNQAQHTPTQQELNGKDYHTYMGKVLRLNLDGSIPKDNPSFNGVVSHIYTLGHRNPQGLAFTPNGKLLQSEQGPNSDDEINLIVKGGNYGWPNVAGYKDDSGYAYANYSAAANKSIKDLAQNGVKVAAGVPVTKESEWTGKNFVPPLKTLYTVQDTYNYNDPTCGEMTHICWPTVAPSSAYVYKGGKKAITGWENTLLVPSLKRGVIFRIKLDPTYSTTYDDAVPMFKSNNRYRDVIASPDGNVLYVLTDTAGIVQKDDGSVTNTLENPGSLIKFTYKAK
As to B7, in series [7] (setting [8]), the Km is 18 mM and the Vmax was 170 U/mg protein.

B8: GB-His: GDH-B fused with 6-His tag to the C-terminal (protein)
chain: DVPLTPSQFAKAKSENFDKKVILSNLNKPHALLWGPDNQIWLTERATGKILRVNPESGSVKTVFQVPEIVNDADGQNGLLGFAFHPDFKNNPYIYISGTFKNPKSTDKELPNQTIIRRYTYNKSTDTLEKPVDLLAGLPSSKDHQSGRLVIGPDQKIYYTIGDQGRNQLAYLFLPNQAQHTPTQQELNGKDYHTYMGKVLRLNLDGSIPKDNPSFNGVVSHIYTLGHRNPQGLAFTPNGKLLQSEQGPNSDDEINLIVKGGNYGWPNVAGYKDDSGYAYANYSAAANKSIKDLAQNGVKVAAGVPVTKESEWTGKNFVPPLKTLYTVQDTYNYNDPTCGEMTYICWPTVAPSSAYVYKGGKKAITGWENTLLVPSLKRGVIFRIKLDPTYSTTYDDAVPMFKSNNRYRDVIASPDGNVLYVLTDTAGNVQKDDGSVTNTLENPGSLIKFTYKAK
modifications: left off: His6, C-terminal, kept
notes: GDH-B fused with 6-His tag to the C-terminal
Take B8: in series [7] (pH 7), the Km stood at 24 mM and the Vmax was determined as 3950 U/mg protein.
